From patent US20240181022A1, “AMURINS LYSINS, AND LYSIN-ANTIMICROBIAL PEPTIDE (AMP) CONSTRUCTS ACTIVE AGAINST GRAM-NEGATIVE BACTERIA” (priority 2021, published 2024)
Where no end group is shown, it is not given here.

Columns and labels:
[1] = system: K. pneumoniae; assay: Checkerboard synergy assay (FICI) against K. pneumoniae; format: cell-based, Klebsiella pneumoniae; conditions: K. pneumoniae HM-44
Experimental: Any known method to assess MIC may be used.
Checkerboards are constructed by first preparing columns of e.g., a 96-well polypropylene microtiter plate, wherein each well has the same amount of antibiotic diluted 2-fold along the horizontal axis. […] Bacteria are added to the drug combinations at concentrations of 1×10^5 […] in CAA, for example, with or without human serum or pulmonary surfactant. […] Summation fractional inhibitory concentrations (ΣFICs) are calculated for each drug and the minimum ΣFIC value (ΣFICmin) is used to determine the effect of the Chp peptide/antibiotic combination.
GN370 was further tested in combination with up to seven additional antibiotics (in addition to meropenem) against a variety of bacterial strains, including P. aeruginosa, A. baumannii, E. coli, E. cloacae, and K. pneumoniae. GN370 and the subject antibiotics were tested in a checkerboard assay format, and FICI values were determined, wherein ≤0.5 indicates synergy, >0.5-≤1 indicates additive; and >1 indicates indifferent.

[2] = system: A. xylosoxidans; assay: Serial passage resistance development study, A. xylosoxidans; format: cell-based, Achromobacter xylosoxidans; conditions: A. xylosoxidans, day 28
[3] = system: Gram-negative bacteria biofilm; assay: Antibiofilm activity (MBEC) against Gram-negative bacteria, incl. MDR and XDR isolates; format: cell-based; conditions: range of MDR and XDR isolates
[4] = system: Raoultella ornithinolytica; assay: MIC by broth microdilution against Raoultella ornithinolytica; format: cell-based; conditions: N 1
Experimental: (§1) MIC values were determined by broth microdilution against clinical isolates and resistant isolates from a wide range of bacterial species, including isolates from the CDC Antibiotic Resistance bank, including the GN ESKAPE pathogens and E. coli, including carbapenem-resistant Enterobacteriaciae, Acinetobacter, and Pseudomonas.

[5] = system: E. cloacae; assay: MBEC against E. cloacae biofilm; format: cell-based, Enterobacter cloacae; conditions: MDR and XDR E. cloacae (14)
[6] = system: Enterobacter aerogenes; assay: MIC by broth microdilution against Enterobacter aerogenes; format: cell-based; conditions: N 1
Experimental: as §1

[7] = system: Serratia marcescens; assay: MIC by broth microdilution against Serratia marcescens; format: cell-based; conditions: N 9
Experimental: as §1

[8] = system: K. pneumoniae; assay: MBEC against K. pneumoniae biofilm; format: cell-based, Klebsiella pneumoniae; conditions: MDR and XDR K. pneumoniae (11)
[9] = system: P. aeruginosa AR-769; assay: GN370 in the rabbit pneumonia model; format: in vivo, New Zealand White rabbits
[10] = system: P. aeruginosa; assay: GN370 time-kill assay, P. aeruginosa; format: cell-based, Pseudomonas aeruginosa; conditions: for Log10 CFU/mL: P. aeruginosa PA25
Experimental: (§2) A kinetic analysis of GN370 bactericidal activity was performed using a time-kill assay format in which CFU reductions of each target organism (P. aeruginosa, K. pneumoniae, A. baumannii, E. coli, and E. cloacae) were measured over 24 hours at 37° C. […] Bactericidal activity was defined as CFU reductions of ≥3-log 10 CFU/mL as compared to the inoculum at the 24-hour time point.

[11] = system: Kluyvera ascorbate; assay: MIC by broth microdilution against Kluyvera ascorbate; format: cell-based; conditions: N 1
Experimental: as §1

[12] = system: E. cloacae; assay: GN370 time-kill assay, E. cloacae; format: cell-based, Enterobacter cloacae; conditions: for Log10 CFU/mL: E. cloacae ATCC 29941
Experimental: as §2

[13] = system: Citrobacter freundii; assay: MIC by broth microdilution against Citrobacter freundii; format: cell-based; conditions: N 2
Experimental: as §1

[14] = system: Salmonella senftenberg; assay: MIC by broth microdilution against Salmonella senftenberg; format: cell-based; conditions: N 1
Experimental: as §1

[15] = system: K. pneumoniae (1_1_5 HM-44); assay: microbe, parasite or virus in culture; format: cell-based, Klebsiella pneumoniae
[16] = system: K. pneumoniae; assay: GN370 time-kill assay, K. pneumoniae; format: cell-based, Klebsiella pneumoniae; conditions: for Log10 CFU/mL: K. pneumoniae ATCC 700603
Experimental: as §2

[17] = system: A. baumannii (ATCC BAA-747); assay: microbe, parasite or virus in culture; format: cell-based, Acinetobacter baumannii
[18] = system: E. coli; assay: MIC by broth microdilution against E. coli; format: cell-based, Escherichia coli
[19] = Escherichia coli, AR Bank, N 17
[20] = Escherichia coli, Weill Cornell, N 13
[21] = Escherichia coli, all isolates, N 30

C[C@@H](O)[C@H]1C(=O)N2C(C(=O)O)=C(S[C@@H]3CN[C@H](C(=O)N(C)C)C3)[C@H](C)[C@H]12 [meropenem, reference compound]
FICI of the antibiotic with GN370 [1]: 0.5

MRLKMARRRYRLPRRRSRRLFSRTALRMHPRNRLRRIMRGGIRF [AM1]
change in MIC over serial passage [2]: no increase in the MICs

B1: GN370: lysin-AMP construct, SEQ ID NO: 149: MIDR, FIRL and NPTH moieties N-terminal to GN202 lysin (protein)
chain: MIDRFIRLNPTHGPRRPRRPGRRAPVRTSQRGIDLIKSFEGLRLSAYQDSVGVWTIGYGTTRGVTRYMTITVEQAERMLSNDIQRFEPELDRLAKVPLNQNQWDALMSFVYNLGAANLASSTLLDLLNKGDYQGAADQFPHWVNAGGKRLDGLVKRRAAERALFLEPLS
modifications: GN370 lysin
MBEC [3]: ≤ 4 µg/mL | MIC Range [4]: 0.25 µg/mL | MBEC50 [5]: 1 µg/mL | MBEC90 [5]: 2 µg/mL | MBEC Range [5]: 0.5 to 2 µg/mL | Number of isolates at MBEC 0.5 μg/mL [5]: 1 | Number of isolates at MBEC 1 μg/mL [5]: 9 | Number of isolates at MBEC 2 μg/mL [5]: 4 | MIC Range [6]: 1 µg/mL | MIC50 [7]: 32 µg/mL | MIC90 [7]: >64 µg/mL | MBEC50 [8]: 1 µg/mL | MBEC90 [8]: 2 µg/mL | MBEC Range [8]: 0.5 to 4 µg/mL | Number of isolates at MBEC 0.5 μg/mL [8]: 3 | Number of isolates at MBEC 1 μg/mL [8]: 3 | Number of isolates at MBEC 2 μg/mL [8]: 4 | Number of isolates at MBEC 4 μg/mL [8]: 1 | animals surviving until the end of the study ([9]; GN370 at 3 mg/kg and 10 mg/kg alone or in addition to amikacin): 100% | decrease of mean bacterial densities in lungs vs vehicle controls ([9]; amikacin-alone or GN370-alone): ~2.0 log10 CFU/g | Log10 CFU/mL ([10]; 0.2x MIC, 1 hr): 4.5 Log10 CFU/mL | Log10 CFU/mL ([10]; 0.2x MIC, 3 hr): 4.7 Log10 CFU/mL | Log10 CFU/mL ([10]; 0.2x MIC, 24 hr): 9.5 Log10 CFU/mL | Log10 CFU/mL ([10]; 1x MIC, 1 hr): 1.5 Log10 CFU/mL | Log10 CFU/mL ([10]; 1x MIC, 3 hr): 1.5 Log10 CFU/mL | Log10 CFU/mL ([10]; 1x MIC, 24 hr): 1.54 Log10 CFU/mL | Log10 CFU/mL ([10]; 2x MIC, 1 hr): 1.5 Log10 CFU/mL | Log10 CFU/mL ([10]; 2x MIC, 3 hr): 1.5 Log10 CFU/mL | Log10 CFU/mL ([10]; 2x MIC, 24 hr): 1.5 Log10 CFU/mL | Log10 CFU/mL ([10]; 5x MIC, 1 hr): 1.5 Log10 CFU/mL | Log10 CFU/mL ([10]; 5x MIC, 3 hr): 1.5 Log10 CFU/mL | Log10 CFU/mL ([10]; 5x MIC, 24 hr): 1.5 Log10 CFU/mL | concentration with bactericidal activity (≥3-log 10 CFU/mL reduction at 24 hours) ([10]; P. aeruginosa, 37° C.): ≥ 1 ×MIC | MIC Range [11]: 1 µg/mL | Log10 CFU/mL ([12]; 0.2x MIC, 1 hr): 5.0 Log10 CFU/mL | Log10 CFU/mL ([12]; 0.2x MIC, 3 hr): 5.0 Log10 CFU/mL | Log10 CFU/mL ([12]; 0.2x MIC, 24 hr): 9.0 Log10 CFU/mL | Log10 CFU/mL ([12]; 1x MIC, 1 hr): 2.4 Log10 CFU/mL | Log10 CFU/mL ([12]; 1x MIC, 3 hr): 1.5 Log10 CFU/mL | Log10 CFU/mL ([12]; 1x MIC, 24 hr): 2.3 Log10 CFU/mL | Log10 CFU/mL ([12]; 2x MIC, 1 hr): 1.6 Log10 CFU/mL | Log10 CFU/mL ([12]; 2x MIC, 3 hr): 1.6 Log10 CFU/mL | Log10 CFU/mL ([12]; 2x MIC, 24 hr): 1.6 Log10 CFU/mL | Log10 CFU/mL ([12]; 5x MIC, 1 hr): 1.5 Log10 CFU/mL | Log10 CFU/mL ([12]; 5x MIC, 3 hr): 1.5 Log10 CFU/mL | Log10 CFU/mL ([12]; 5x MIC, 24 hr): 1.5 Log10 CFU/mL | concentration with bactericidal activity (≥3-log 10 CFU/mL reduction at 24 hours) ([12]; E. cloacae, 37° C.): ≥ 1 ×MIC | MIC Range [13]: 0.5 to 2 µg/mL | MIC Range [14]: 2 µg/mL | MIC ([15]; K. pneumoniae 1_1_5_HM-44, target organism of serial passage study): 2 µg/mL | change in MIC over 28-day serial passage ([15]; K. pneumoniae (1_1_5 HM-44)): ≤ 2 fold | change in MIC over 28-day serial passage ([15]; K. pneumoniae, another instance): no change | Log10 CFU/mL ([16]; 0.2x MIC, 1 hr): 5.2 Log10 CFU/mL | Log10 CFU/mL ([16]; 0.2x MIC, 3 hr): 5.0 Log10 CFU/mL | Log10 CFU/mL ([16]; 0.2x MIC, 24 hr): 8.5 Log10 CFU/mL | Log10 CFU/mL ([16]; 1x MIC, 1 hr): 2.0 Log10 CFU/mL | Log10 CFU/mL ([16]; 1x MIC, 3 hr): 1.5 Log10 CFU/mL | Log10 CFU/mL ([16]; 1x MIC, 24 hr): 1.5 Log10 CFU/mL | Log10 CFU/mL ([16]; 2x MIC, 1 hr): 1.5 Log10 CFU/mL | Log10 CFU/mL ([16]; 2x MIC, 3 hr): 1.5 Log10 CFU/mL | Log10 CFU/mL ([16]; 2x MIC, 24 hr): 1.5 Log10 CFU/mL | Log10 CFU/mL ([16]; 5x MIC, 1 hr): 1.5 Log10 CFU/mL | Log10 CFU/mL ([16]; 5x MIC, 3 hr): 1.5 Log10 CFU/mL | Log10 CFU/mL ([16]; 5x MIC, 24 hr): 1.5 Log10 CFU/mL | concentration with bactericidal activity (≥3-log 10 CFU/mL reduction at 24 hours) ([16]; K. pneumoniae, 37° C.): ≥ 1 ×MIC | change in MIC over 28-day serial passage ([17]; A. baumannii (ATCC BAA-747)): No change | MIC ([17]; A. baumannii ATCC BAA-747, target organism of serial passage study): 1 µg/mL | MIC ([18]; E. coli AR-128): (MIC = 0.25 μg/mL) | MIC ([18]; E. coli ATCC 25922 (head of Table 19)): 0.5 µg/mL | MIC90 ([18]; E. coli clinical and resistant isolates): 1 µg/mL | MIC50 [18, 19]: 0.5 µg/mL | MIC90 [18, 19]: 1 µg/mL | MIC Range [18, 19]: 0.125 to 1 µg/mL | MIC50 [18, 20]: 0.25 µg/mL | MIC90 [18, 20]: 0.5 µg/mL | MIC Range [18, 20]: 0.064 to 4 µg/mL | MIC50 [18, 21]: 0.25 µg/mL | MIC90 [18, 21]: 1 µg/mL | MIC Range [18, 21]: 0.0625 to 4 µg/mL
